# Experimental data taken from US20220340682A1 (Sanofi, published 2022).
# T1: cCEACAM5, M. fascicularis CEACAM5 ECD (35-688) (Macaca fascicularis)
# T1 construct: ECD followed by a 24 amino acid extension containing a His-Tag; also called cynomolgus CEACAM5; monkey CEACAM5
# T1 chain: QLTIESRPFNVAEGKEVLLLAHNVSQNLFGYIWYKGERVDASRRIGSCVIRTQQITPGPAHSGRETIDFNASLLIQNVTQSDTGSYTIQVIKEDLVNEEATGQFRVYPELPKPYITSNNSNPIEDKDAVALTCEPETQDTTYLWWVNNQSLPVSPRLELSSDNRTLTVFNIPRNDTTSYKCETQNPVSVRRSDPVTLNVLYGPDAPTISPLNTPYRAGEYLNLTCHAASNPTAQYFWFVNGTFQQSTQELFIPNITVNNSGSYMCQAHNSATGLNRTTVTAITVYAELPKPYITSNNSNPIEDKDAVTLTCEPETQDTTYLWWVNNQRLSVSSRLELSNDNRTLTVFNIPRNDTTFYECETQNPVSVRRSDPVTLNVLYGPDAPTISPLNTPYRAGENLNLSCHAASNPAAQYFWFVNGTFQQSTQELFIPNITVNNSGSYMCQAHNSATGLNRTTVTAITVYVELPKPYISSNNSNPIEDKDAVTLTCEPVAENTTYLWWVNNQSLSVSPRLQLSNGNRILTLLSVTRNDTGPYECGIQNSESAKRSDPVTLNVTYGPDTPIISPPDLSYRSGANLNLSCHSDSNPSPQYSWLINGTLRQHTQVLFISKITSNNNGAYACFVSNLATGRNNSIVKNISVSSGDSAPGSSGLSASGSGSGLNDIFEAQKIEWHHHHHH
# T2: hCEACAM5, human CEACAM5 ECD (35-685) (human, UniProt P06731 35-685)
# T2 construct: produced in HEK293; also called human CEACAM5 protein; human CEACAM5 extracellular domain
# T2 sequence: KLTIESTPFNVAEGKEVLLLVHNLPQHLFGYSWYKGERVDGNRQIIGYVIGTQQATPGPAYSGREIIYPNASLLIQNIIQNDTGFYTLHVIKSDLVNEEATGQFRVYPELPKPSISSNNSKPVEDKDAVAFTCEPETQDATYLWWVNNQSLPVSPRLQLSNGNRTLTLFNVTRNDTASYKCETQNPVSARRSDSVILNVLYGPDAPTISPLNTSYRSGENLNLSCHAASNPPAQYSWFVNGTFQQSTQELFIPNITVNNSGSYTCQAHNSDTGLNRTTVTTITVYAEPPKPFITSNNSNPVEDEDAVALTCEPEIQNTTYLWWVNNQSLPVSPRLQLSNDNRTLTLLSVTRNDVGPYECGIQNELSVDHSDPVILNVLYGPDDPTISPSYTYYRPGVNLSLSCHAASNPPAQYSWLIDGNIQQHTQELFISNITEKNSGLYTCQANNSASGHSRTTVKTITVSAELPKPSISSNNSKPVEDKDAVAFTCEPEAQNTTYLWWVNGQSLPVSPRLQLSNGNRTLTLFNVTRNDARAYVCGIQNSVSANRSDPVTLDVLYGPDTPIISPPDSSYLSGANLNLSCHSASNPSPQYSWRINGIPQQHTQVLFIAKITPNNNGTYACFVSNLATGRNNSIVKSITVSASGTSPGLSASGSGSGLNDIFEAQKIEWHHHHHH
# Columns and labels:
# [1] = target: T1, cCEACAM5, M. fascicularis CEACAM5 ECD …; experiment: SPR (BIAcore 2000), mAb captured by anti-human Fc, antigen injected 1-500 nM
# Protocol: (§1) The binding kinetics of humanized anti-CEACAM5_MAb2 variants, compared with chimeric MAb2, to recombinant human CEACAM5 (hCEACAM5) and cynomolgus monkey CEACAM5 (cCEACAM5) were determined by surface plasmon resonance assay using a BlAcore 2000 (BlAcore Inc., Uppsala, N.J.).
# (§2) Briefly, a CM5 BlAcore biosensor chip was docked into the instrument and activated with 70 μL of 1:1 NHS/EDC at room temperature. A mouse anti-ahuman Fc IgG1 (BlAcore # BR-1008-39) (50 μg/mL in […] acetate buffer, pH5) were immobilized on the activated chips in all flow cells. The immobilization was carried out at a flow rate of 10 μL/min up to saturation. The chip was then blocked by injection of 70 μL of ethanolamine-HCl, pH8.5, followed by one wash with 3M MgCl2. To measure the binding of anti-CEACAM5 mAbs to the human CEACAM5 protein or cynomolgus CEACAM5 protein, antibodies were used at 1-5 μg/mL in BlAcore running buffer (HBS-EP). Antigens (human CEACAM5 or cynomolgus CEACAM5) were injected from 1 to 500 nM. Following completion of the injection phase, dissociation was monitored in a BlAcore running buffer at the same flow rate for 600 sec. The surface was regenerated between injections using 2×5 μL MgCl2 3M (2×30s). Individual sensorgrams were analyzed using BlAevaluation software.
# [2] = target: T2, hCEACAM5, human CEACAM5 ECD (35-685); experiment: as above
# Protocol: as §1, §2
Kd [1] [nM],Kd [2] [nM],Binder
73.5,11.7,"huMAb2-3 (antibody, human IgG1, kappa, V domains shown, Humanized MAb2, human IgG1 / Ckappa; also called MAb2_VL1cVH1a-IgG1) VH: EVQLQESGPGLVKPGGSLSLSCAASGFVFSSYDMSWVRQTPERGLEWVAYISSGGGITYAPSTVKGRFTVSRDNAKNTLYLQMNSLTSEDTAVYYCAAHYFGSSGPFAYWGQGTLVTVSS VL: DIQMTQSPASLSASVGDRVTITCRASENIFSYLAWYQQKPGKSPKLLVYNTRTLAEGVPSRFSGSGSGTDFSLTISSLQPEDFATYYCQHHYGTPFTFGSGTKLEIKR"
41.7,9.8,"huMAb2-1 (antibody, V domains shown, Humanized MAb2 (VL1 + VH1) fused to human IgG1 and human Ckappa constant domains; also called MAb2_VL1VH1-IgG1; MAb2VL1VH1-IgG1) VH: EVQLQESGPGLVKPGGSLSLSCAASGFVFSSYDMSWVRQTPERRLEWVAYISSGGGITYFPSTVKGRFTVSRDNAKNTLYLQMNSLTSEDTAIYYCAAHYFGSSGPFAYWGQGTLVTVSA VL: DIQMTQSPASLSASVGDTVTITCRASENIFSYLAWYQQKPGKSPKLLVYNTKTLAEGVPSRFSGSGSGTQFSLTISSLQPEDFGSYYCQHHYGTPFTFGSGTKLEIK"
52.3,9.9,"chMAb2 (antibody, human IgG1, kappa, V domains shown, Chimeric, human IgG1, Ck isotype; also called MAb2-IgG1; chimeric MAb2) VH: EVQLQESGGVLVKPGGSLKLSCAASGFVFSSYDMSWVRQTPEKRLEWVAYISSGGGITYFPDTVQGRFTVSRDNAKNTLYLQMNSLKSEDTAIYYCAAHYFGSSGPFAYWGQGTLVTVSA VL: DIQMTQSPASLSASVGETVTITCRASENIFSYLAWYQQKQGKSPQLLVYNTKTLAEGVPSRFSGSGSGTQFSLKINSLQPEDFGSYYCQHHYGTPFTFGSGTKLEIKR"
38.6,6.9,"huMAb2-4 (antibody, human IgG1, kappa, V domains shown, Humanized MAb2, human IgG1 / Ckappa; also called MAb2_VL1d VH1-IgG1; MAb2_VL1dVH1-IgG1) VH: EVQLQESGPGLVKPGGSLSLSCAASGFVFSSYDMSWVRQTPERRLEWVAYISSGGGITYFPSTVKGRFTVSRDNAKNTLYLQMNSLTSEDTAIYYCAAHYFGSSGPFAYWGQGTLVTVSA VL: DIQMTQSPASLSASVGDTVTITCRASENIFSYLAWYQQKPGKSPKLLVYNTRTLAEGVPSRFSGSGSGTQFSLTISSLQPEDFGSYYCQHHYGTPFTFGSGTKLEIKR"
96,24.5,"huMAb2-2 (antibody, V domains shown, Humanized MAb2 (VL1a + VH1a) fused to human IgG1 and human Ckappa constant domains; also called MAb2_VL1aVH1a-IgG1; MA2_VL1aVH1a-IgG1) VH: EVQLQESGPGLVKPGGSLSLSCAASGFVFSSYDMSWVRQTPERGLEWVAYISSGGGITYAPSTVKGRFTVSRDNAKNTLYLQMNSLTSEDTAVYYCAAHYFGSSGPFAYWGQGTLVTVSS VL: DIQMTQSPASLSASVGDRVTITCRASENIFSYLAWYQQKPGKSPKLLVYNTKTLAEGVPSRFSGSGSGTDFSLTISSLQPEDFATYYCQHHYGTPFTFGSGTKLEIK"
